Laboratory results reported in publication PMC4718548 (Structure (London, England : 1993), 2015).

Tests used:
[1] = target: Mycobacterium tuberculosis ribosome large subunit 50S (Mycobacterium tuberculosis (endogenous in Mtb MC2 7000)) (UniProt A5U0A0); assay: co-sedimentation
[2] = target: Mycobacterium tuberculosis ribosome large subunit 50S (Mycobacterium tuberculosis (endogenous in Mtb MC2 7000)) (UniProt A5U0A0); assay: cryo-EM structure
[3] = target: the molecule itself
[4] = target: Mycobacterium tuberculosis ribosome large subunit 50S (Mycobacterium tuberculosis (endogenous in Mtb MC2 7000)) (UniProt A5U0A0)

Mycobacterium tuberculosis ribosome large subunit 50S (Mycobacterium tuberculosis (endogenous in Mtb MC2 7000)), sequence (A5U0A0 whole entry, looked up): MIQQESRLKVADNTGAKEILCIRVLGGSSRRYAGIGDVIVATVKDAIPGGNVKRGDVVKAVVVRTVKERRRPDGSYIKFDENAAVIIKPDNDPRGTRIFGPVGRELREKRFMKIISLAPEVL

In the case of “Mycobacterium tuberculosis ribosome small subunit 30S (complex)”, the percent of 50S in the 70S form, without RsfS [1] is reported as > 70%.

B1: Mycobacterium tuberculosis ribosomal silencing factor RsfS, wild type, C-terminal His6 (natural protein)
chain: MTANREAIDMARVAAGAAAAKLADDVVVIDVSGQLVITDCFVIASGSNERQVNAIVDEVEEKMRQAGYRPARREGAREGRWTLLDYRDIVVHIQHQDDRNFYALDRLWGDCPVVPVDLSANSAGAQ
Molecule B1 has a stoichiometry N [2] of 1.

B2: Mycobacterium tuberculosis RsfS E74A, C-terminal His6 (natural protein)
chain: MTANREAIDMARVAAGAAAAKLADDVVVIDVSGQLVITDCFVIASGSNERQVNAIVDEVEEKMRQAGYRPARRAGAREGRWTLLDYRDIVVHIQHQDDRNFYALDRLWGDCPVVPVDLSANSAGAQ
With B2 the “stoichiometry N” value [3] was 2.

B3: Escherichia coli RsfS, wild type, C-terminal His6 (natural protein)
chain: MQGKALQDFVIDKIDDLKGQDIIALDVQGKSSITDCMIICTGTSSRHVMSIADHVVQESRAAGLLPLGVEGENSADWIVVDLGDVIVHVMQEESRRLYELEKLWS
B3 showed an inhibition in the Mtb ribosome cell-free translation assay [4] of 80%.
